One test deals with BxPc-3 tumor. The experiment in a line: BxPc-3 tumor xenograft model (IgG hSD5, gemcitabine). Format: in vivo, mouse. The note with it: BxPc-3 xenograft, iv. Here is the method: (§1) The freshly prepared BxPc-3 and Mia PaCa-2 cancer cells were harvested during the log growth phase and resuspended in PBS for tumor implantation. Each NOD/SCID mouse was subcutaneously inoculated with cancer cells (5×10^6 to BxPc-3 and 1×10^7 to Mia PaCa-2) for tumor formation. The tumor size was measured twice weekly, and the volume was calculated as follows: V=0.5lw^2, where l=the length and w=the width. When the tumor size was approximately 100 mm3, animals were divided into groups that received (a) vehicle alone through intravenous injection (i.v.) once weekly (qwk), (b) control human IgG1 at 20 mg/kg through i.v. qwk, (c) and (d) hSD5 IgG1 at 2 or 20 mg/kg through i.v. qwk, (e) and (f) gemcitabine at 20 or 100 mg/kg through i.v. twice weekly (biw), or (g) hSD5 IgG1 at 2 mg/kg through i.v. qwk combined with gemcitabine at 20 mg/kg through i.v. biw. At the end of the experiment, the antitumor effects were quantified by dividing the tumor volumes in the treatment groups by those in the control groups and multiplying them by 100 to represent tumor growth inhibition (TGI; %). The mice were also examined frequently for overt signs of adverse drug-related side effects.
(§2) The pancreatic tissue microarray slide (US Biomax, PA483e) was used to detect and analyze the EphA2 expression of clinical samples. In the xenograft animal model, the excised BxPc-3 and Mia PaCa-2 tumors were fixed in formalin, embedded in paraffin, and sliced for immunohistochemical staining (IHC). Commercial antibodies (Cell signaling, Dako; Agilent Technologies; and Abcam) were used for staining the EphA2 molecule, cell proliferation marker Ki-67, and apoptosis marker cleaved caspase 3. The effects of staining were observed using a Zeiss Axioskop-2 microscope (Carl Zeiss).
(§3) Administration of IgG hSD5 (20 mg/kg, iv, qwk, indicated as blue filled inverted triangles) and Gemcitabine (100 mg/kg, iv, biw, indicated as orange filled squares) were used to test the inhibition effect on BxPc-3 tumor growth, n=6, TGI denotes Tumor growth inhibition. (FIG. 7A) Administration of IgG hSD5 (2 mg/kg, iv, qwk, indicated by solid black triangles), Gemcitabine (20 mg/kg, iv, biw, indicated by black open squares), and the experimental group that combined IgG and Gemcitabine treatment simultaneously (indicated by solid red diamonds) were used to teat the growth inhibitory effect of BxPc-3 on the tumor. (FIG. 7B) During treatments, the weight changes of each mouse group were tracked. (FIG. 7C) The expression levels of EphA2, cell proliferation marker Ki67, and apoptosis-related marker cleaved caspase3 in the excised tumor groups were analyzed by IHC staining. (FIG. 7D)

The next test relates to Mia PaCa-2 tumor. The test can be described thus: Mia PaCa-2 tumor xenograft model (IgG hSD5, gemcitabine). Format: in vivo, mouse. The note with it: Mia PaCa-2 xenograft. Here is the method:
as §1, §2
as §3, with “Mia PaCa-2 xenograft mice was also used to determine the inhibitory effect of IgG hSD5 on in vivo tumor growth. Administration of” for “Administration of”, “inhibition. (FIG. 8A) Administration of” for “inhibition. (FIG. 7A) Administration of”, “tumor. (FIG. 8B) During treatments,” for “tumor. (FIG. 7B) During treatments,”, “tracked. (FIG. 8C) The expression” for “tracked. (FIG. 7C) The expression”, “staining. (FIG. 8D)” for “staining. (FIG. 7D)”

Test [1] deals with T1, recombinant EphA2 protein (UniProt P29317 24-537, limits assumed).
T1 construct: Coated on ELISA plates, run on Native-PAGE and used in biolayer interferometry
T1 sequence (P29317 24-537 limits assumed): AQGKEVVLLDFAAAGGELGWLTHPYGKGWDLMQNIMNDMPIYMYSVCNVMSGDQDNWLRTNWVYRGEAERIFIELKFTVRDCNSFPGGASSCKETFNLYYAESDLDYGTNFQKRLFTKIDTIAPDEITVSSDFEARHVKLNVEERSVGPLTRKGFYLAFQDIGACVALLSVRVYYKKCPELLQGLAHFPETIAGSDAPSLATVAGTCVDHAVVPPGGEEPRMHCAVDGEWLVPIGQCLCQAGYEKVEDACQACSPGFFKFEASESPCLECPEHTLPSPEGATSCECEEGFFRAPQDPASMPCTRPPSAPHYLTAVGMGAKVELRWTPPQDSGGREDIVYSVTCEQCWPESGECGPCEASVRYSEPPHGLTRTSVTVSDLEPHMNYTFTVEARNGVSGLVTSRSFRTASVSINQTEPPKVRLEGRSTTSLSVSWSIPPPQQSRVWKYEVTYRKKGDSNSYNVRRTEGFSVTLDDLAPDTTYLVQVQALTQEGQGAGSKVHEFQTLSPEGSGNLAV
The experiment in a line: ELISA, serially diluted scFv on coated recombinant EphA2. For orientation: An ELISA detects its analyte on a solid surface through an enzyme-linked reagent.
Method: The recombinant EphA2 protein (0.5 ug/well) was coated onto the wells of the microtiter plate at 4° C. overnight. The wells were blocked with 5% skim milk, and scFv or phage was then added to the wells at room temperature for 1 h. After the wells were washed with PBST, the bound scFv or phage was then detected and developed using horseradish peroxidase (HRP)-conjugated goat anti-chicken light chain antibodies (Bethyl Laboratories) or HRP-conjugated anti-M13 antibodies (GE Healthcare Life Science). Finally, the substrate 3,5,5-tetramethubezidine dihydrochloride (TMB) was added for signal development. The reaction was stopped by adding 1 N HCl, and absorbance was measured by determining optical density (OD) at 450 nm.
Four representative scFvs were serially diluted to test the percentage of binding to EphA2 molecules. (FIG. 3C) After gene sequencing, we serially diluted the four isolated representative scFvs to test the binding reaction to EphA2.

For the next test, the system named is BxPc-3 cells. The test can be described thus: Antibody internalization (endocytosis) assay. Format: cell-based, human. Conditions: BxPc-3, 1 h, 37° C. vs 4° C. (FIG. 6B). Here is the method:
BxPc-3 cells were seeded on cover glasses placed in the wells of a 6-well culture plate. The BxPc-3 seeded glass slides were incubated with ephrin A1-Fc (Sino Biological) or IgG hSD5 for 1 h at 37° C. or 4° C. After washing with PBS, the cells were fixed with 100% ice methanol for 10 min. Next, the cells were stained with an FITC-conjugated anti-human Fc antibody and were subsequently mounted with ProLong Diamond Antifade Mountant comprising 4′,6-diamidino-2-phenylindole for nuclear counterstaining (Invitrogen). The cells were imaged using a confocal microscope (Leica Microsystems).

Test [2] addresses T1, recombinant EphA2 protein. The experiment in a line: biolayer interferometry. In general terms: BLI is a label-free optical method that tracks binding on a fibre tip over time.
Test [3] has as its target T2, EphA2pep_P1 (BSA-CGGGWDLMQNIMNDMPIYMYSV) (conjugated with BSA (printed BSA-C...)).
T2 peptide: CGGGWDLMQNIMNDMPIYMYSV
The experiment in a line: peptide ELISA on BSA-conjugated peptides. Here is the method: (§4) These peptides were synthesized and conjugated with BSA (Kelowna International Scientific). The BSA-conjugated peptides were individually coated on a 96-well microplate at 4° C. overnight. […] Next, an HRP-conjugated anti-HA tag antibody (Cell Signaling Technology) was used to detect bound scFv. Finally, the TMB substrate was added for development, and the reaction was stopped by adding 1 N HCl. Absorbance was measured by determining the OD at 450 nm. […] Blocking with 3% BSA was performed at RT for 1 h. […] After the membrane was washed, the HRP-conjugated anti-HA tag antibody was added, and the reaction was allowed to proceed for 1 h at RT. Lastly, DAB was used to initiate the coloration reaction.
(§5) The two short peptides located on the designed activation site of EphA2 are EphA2pep_P1 and EphA2pep_P2, respectively. The long peptide formed by linking the two short peptides is EphA2pep_PIP2. NCIpep and NC2pep are two irrelevant peptides as the negative control. EphA2 ECD is a recombinant EphA2 extracellular domain protein.

Test [4] has as its target T3, EphA2pep_P2 (BSA-CGGGGGGSVSSDFEARHV).
T3 peptide: {BSA}-CGGGGGGSVSSDFEARHV
The test can be described thus: peptide ELISA on BSA-conjugated peptides. Here is the method:
as §4, §5

Test [5] deals with T4, EphA2pep_PIP2 (BSA-CGGGWDLMQNIMNDMPIYMYSVGGGGGGSVSSDFEARHV) (conjugated with BSA (printed BSA-C...)).
T4 construct: also called long peptide
T4 peptide: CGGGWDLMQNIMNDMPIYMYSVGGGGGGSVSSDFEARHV
The test can be described thus: peptide ELISA on BSA-conjugated peptides. Here is the method:
as §4, §5

Ends that are not written are not given here. BSA = bovine serum albumin carrier conjugated to the peptide

For orientation: EC50 means the concentration at which the effect is half-maximal. As usually defined, the Kd is the equilibrium constant for the complex coming apart.

Regarding `Nc1ccn([C@@H]2O[C@H](CO)[C@@H](O)C2(F)F)c(=O)n1` [Gemcitabine, reference compound], the “TGI (tumor growth inhibition)” value stood at 34.6% in the test with BxPc-3 tumor (20 mg/kg, biw); 59.8% in the test on BxPc-3 tumor (100 mg/kg, qwk); 38.7% with Mia PaCa-2 tumor (20 mg/kg gemcitabine); 73.7% with Mia PaCa-2 tumor (100 mg/kg).

B1: scFv SD5 (scFv)
scFv: LTQPSSVSANLGETVKIPCSGSSGSYGWYQQKSPGSAPVTLIYDNDKRPSDIPSRFFGSTSGSTSTLTITGVQAEDEAVYFCGSADSSTYVGMFGAGTTLTVLGQSSRSSTVTLDESGGGLQTPGGGLSLVCKASGFTFSDYGMGWVRQAPGKGLEFVAGISAAGSFTPYGAAVKGRATISRDNGQSTVRLQLNNLRSEDTGIYYCARIPSGYRAGEIYTWGQGTEVIVSS
notes: also called antibody SD5
B1: the 50% effective concentration (EC50) in test [1] amounted to 1.8 nM.

B2: ephrin-A1: ligand of EphA2, recombinant, used as a positive control (protein)
chain: DRHTVFWNSSNPKFRNEDYTIHVQLNDYVDIICPHYEDHSVADAAMEQYILYLVEHEEYQLCQPQSKDQVRWQCNRPSAKHGPEKLSEKFQRFTPFTLGKEFKEGHSYYYISKPIHQHEDRCLRLKVTVSGKITHSPQAHDNPQEKRLAADDPEVRVLHSIGHS
modifications: left off: a dimerising Fc or GST
notes: ligand of EphA2, recombinant, used as a positive control
Consider B2, for which, in the test on BxPc-3 cells, the “endocytosis after targeting EphA2” value is listed as “endocytosed from the cell membrane into the cytoplasm”.

B3: Humanized IgG hSD5 (antibody, V domains shown)
VH: QVQLVESGGGLVQPGGSLRLSCAASGFTFSDYGMGWVRQAPGKGLEWVAGISAAGSFTPYGAAVKGRFTISRDNSKNTVYLQMNSLRAEDTAVYYCARIPSGYRAGEIYTWGQGTLVTVSS
VL: LTQPPSVSVSPGQTVRITCSGSSGSYGWYQQKSPGQAPVTLIYDNDKRPSGIPERFSGSSSGSTSTLTISGVQAEDEADYYCGSADSSTYVGMFGGGTKLTVL
notes: also called hSD5 IgG; hSD5 IgG1
Turning to B3, in test [2], the Kd worked out at 2.06 nM. For the same molecule, the binding result in test [3], in test [4] and in test [5] was “binds” in each case.

Values taken from patent publication US20250340655A1, “EPHA2-TARGETING ANTIBODIES AND THEIR APPLICATIONS IN CANCER TREATMENT” (TAIPEI MEDICAL UNIVERSITY, priority 2022, published 2025).
